Reference: PMC9234588

Tests used:
[1] = target: MukB^EQ-Cy5 (EQ MukB mutant, binds but cannot hydrolyse ATP) (E. coli) (UniProt P22523); assay: single-molecule TIRF fluorescence intensity counting; MukB^EQ-Cy5 with MukE, truncated monomeric MukF (MonoMukF) and ATP-Mg2+ on doubly tethered λDNA, 150 mM NaCl buffer, ~1 pN of applied force; 164 clusters
[2] = target: Fluorescently labelled MukB (MukB-Cy5) (E. coli) (UniProt P22523); assay: single-molecule TIRF fluorescence intensity counting; MukB-Cy5 on 'bulbs' of doubly tethered λDNA; 10 nM MukB incubated with DNA at 50 mM NaCl until compacted, then 10 nM MukF, 20 nM MukE and 1 mM ATP-Mg2+ flowed in; number from the intensity against that of a single MukB bound to glass; 107 DNAs

Substance: MukB^EQ-Cy5 (EQ MukB mutant, binds but cannot hydrolyse ATP) (from UniProt P22523 1-1486) (natural protein)
- stoichiometry N [1]: 2

Substance: Fluorescently labelled MukB (MukB-Cy5) (from UniProt P22523 1-1486) (natural protein)
- stoichiometry N [2]: 2 to 4
